Laboratory results as given in PMC3935488.

B1: bovine guanylate cyclase-activating protein 1 (GCAP1), D6S mutant, myristoylated (natural protein)
chain: MGNIMSGKSVEELSSTECHQWYKKFMTECPSGQLTLYEFRQFFGLKNLSPWASQYVEQMFETFDFNKDGYIDFMEYVAALSLVLKGKVEQKLRWYFKLYDVDGNGCIDRDELLTIIRAIRAINPCSDSTMTAEEFTDTVFSKIDVNGDGELSLEEFMEGVQKDQMLLDTLTRSLDLTRIVRRLQNGEQDEEGASGRETEAAEADG
modifications: myristoylated (degree of myristoylation typically higher than 90%)
B2: bovine guanylate cyclase-activating protein 2 (GCAP2), myristoylated (natural protein)
chain: MGQQFSWEEAEENGAVGAADAAQLQEWYKKFLEECPSGTLFMHEFKRFFKVPDNEEATQYVEAMFRAFDTNGDNTIDFLEYVAALNLVLRGTLEHKLKWTFKIYDKDRNGCIDRQELLDIVESIYKLKKACSVEVEAEQQGKLLTPEEVVDRIFLLVDENGDGQLSLNEFVEGARRDKWVMKMLQMDLNPSSWISQQRRKSAMF
modifications: myristoylated (degree of myristoylation typically higher than 90%)

Tests used:
[1] = target: human rod outer segment guanylate cyclase 1 (ROS-GC1), mutant P575L (human) (UniProt Q02846)
[2] = target: human rod outer segment guanylate cyclase 1 (ROS-GC1), wildtype (human) (UniProt Q02846)

| Binder | EC50 of guanylate cyclase activation (cGMP produced) with 0–20 μM Ca2+-free, Mg2+-bound GCAP1, HEK cell membranes, 30 min [1] [µM] | EC50 of guanylate cyclase activation (cGMP produced) with 0–20 μM Ca2+-free, Mg2+-bound GCAP1, HEK cell membranes, 30 min [2] [µM] | EC50 of guanylate cyclase activation (cGMP produced) with 0–20 μM Ca2+-free, Mg2+-bound GCAP2, HEK cell membranes, 30 min [1] [µM] | EC50 of guanylate cyclase activation (cGMP produced) with 0–20 μM Ca2+-free, Mg2+-bound GCAP2, HEK cell membranes, 30 min [2] [µM] |
| --- | --- | --- | --- | --- |
| B1 | 3.32 | 2.93 |  |  |
| B2 |  |  | 7.44 | 8.34 |
